Reference: US10973880B2, “Compositions and methods for treating pulmonary hypertension” (Acceleron Pharma Inc., priority 2016, dated 2021)

Key:
[1] = tested on: rat model of pulmonary arterial hypertension (PAH), monocrotaline (MCT) induced; assay: monocrotaline rat model of pulmonary arterial hypertension; format: in vivo, Sprague Dawley rats
Protocol: The effects of an ActRIIA-mFc fusion protein (ActRIIA-mFc homodimer as described in Example 1), an ALK4-Fc-ActRIIB-Fc heterodimer (as described in Examples 12 and 13), and sildenafil (a phosphodiesterase-5 inhibitor approved for the treatment of PAH) were examined in a rat model of pulmonary arterial hypertension (PAH). In this model, Sprague Dawley rats received a […] injection of monocrotaline (MCT) to induce PAH 24 hours prior to start of therapy.
Rats were separated into different treatment groups (10 mice per group): 1) treatment with MCT (60 mg/kg administered i.p. as a single dose at day 1 of study) and Tris buffered saline (i.p. as 1 ml/kg, every three days) (vehicle treatment group), 2) treatment with an ActRIIA-mFc polypeptide (10 mg/kg administered i.p. every three days) and MCT (60 mg/kg administered i.p. as a single dose at day 1 of study), 3) treatment with an ALK4-Fc:ActRIIB-Fc heterodimer (10 mg/kg administered i.p. every three days) and MCT (60 mg/kg administered i.p. as a single dose at day 1 of study), 4) treatment with sildenafil (30 mg/kg administered orally twice daily) and MCT (60 mg/kg administered i.p. as a single dose at day 1 of study), and 5) control rats (Tris buffered saline administered i.p. as 1 ml/kg, every three days). Rats were treated for 28 days. Body weights were recorded prior to first dose on Day 1 and then weekly throughout the study.
On day 28, rats were anesthetized by an intraperitoneal injection of ketamine/xylazine (80/10 mg/kg). An incision was made in the neck, and a jugular vein was isolated and ligated anteriorly. A fluid-filled pressure catheter was introduced into the right jugular vein to measure pulmonary artery pressure (PAP). Another incision was made in the inguinal region, and femoral artery was isolated and ligated anteriorly. A Millar pressure catheter was introduced into a femoral artery to measure systolic arterial pressure, diastolic pressure, and heart rate. Mean arterial pressure and right PAP were monitored using the Notocord HEM (Croissy sur Seine, Frnace) v3.5 data capture system for approximately 5-10 minutes until stable measurements were obtained. During the measurements, rats were maintained at approximately 37° C. on a heating pad and body temperature was monitored throughout the procedure with a rectal temperature probe. At the conclusion of the procedure, rats were euthanized, and the hearts and lungs were removed. The entire heart was weighed. Next, the atria were removed and the left ventricle with septum (LV+S) was separated from the right ventricle (RV). The ventricles were weighed separately. Hypertrophy was assessed, in part, by calculating RV/LV+S. The lungs were also weighed.
Similar trends were observed on vessel muscularity based on histopathologic scoring. After staining tissue samples to detect αSMA/elastin, 100 pulmonary arterioles, between 10 μm and 50 μm in size, per animal were categorized as non-muscularized, partially muscularized, or completely muscularized. Pulmonary arterioles from vehicle treated rats were determined to be 62.3% completely muscularized, 36.4% partially muscularized, and 1.4% non-muscularized. […] Histopathological scoring of smooth muscle hypertrophy of pulmonary arterioles were also recorded as follows: 0 (normal), 1 (minimal), 2 (mild), 3 (moderate), or 4 (marked).

activin A (ActA) = molecular target: T1, activin A (ActA) (Homo sapiens, UniProt P08476); details: reproduced from WO2006/012627; cited from earlier work
T1 sequence (P08476 311-426): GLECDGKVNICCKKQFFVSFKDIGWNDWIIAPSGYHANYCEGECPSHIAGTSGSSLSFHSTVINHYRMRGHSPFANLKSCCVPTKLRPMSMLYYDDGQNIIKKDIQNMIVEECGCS

GDF11 = molecular target: T2, GDF11 (Homo sapiens, UniProt O95390); details: reproduced from WO2006/012627; cited from earlier work
T2 sequence (O95390 299-407): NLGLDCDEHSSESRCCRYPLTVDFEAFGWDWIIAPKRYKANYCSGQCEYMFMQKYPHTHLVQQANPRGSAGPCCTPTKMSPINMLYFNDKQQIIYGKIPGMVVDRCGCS

GDF8 = molecular target: T3, GDF8 (Homo sapiens, UniProt O14793); assay: Biacore assay, receptor captured with anti-hFc antibody; format: binding
T3 sequence (O14793 267-375): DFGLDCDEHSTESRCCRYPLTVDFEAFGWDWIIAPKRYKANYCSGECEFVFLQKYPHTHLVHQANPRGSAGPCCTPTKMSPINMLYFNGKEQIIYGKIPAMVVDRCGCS
Protocol: Binding of certain ActRIIB-Fc proteins and GDF traps to ligands was tested in a Biacore assay.
The ActRIIB-Fc variants or wild-type protein were captured onto the system using an anti-hFc antibody. Ligands were injected and flowed over the captured receptor proteins.

Molecule	ActA binding relative to WT (activin A (ActA))	GDF11 binding relative to WT (GDF11)	further results
CCCc1nn(C)c2c(=O)[nH]c(-c3cc(S(=O)(=O)N4CCN(C)CC4)ccc3OCC)nc12 [sildenafil, reference compound]	–	–	smooth muscle hypertrophy of pulmonary arterioles, average histopathological score ([1]; 0 normal, 1 minimal, 2 mild, 3 moderate, 4 marked): 3 score; improvement in body weight ([1]; 28 days, compared to monocrotaline treated rats, proteins 10 mg/kg i.p. every three days, sildenafil 30 mg/kg orally twice daily): did not have any improvement
+15tail: soluble ActRIIB-Fc variant labelled +15tail (WO2006/012627) (protein, left off: a dimerising Fc or GST) SGRGEAETRECIYYNANWELERTNQSGLERCEGEQDKRLHCYASWANSSGTIELVKKGCWLDDFNCYDRQECVATEENPQVYFCCCEGNFCNERFTHLPEAGGPEVTYEPPPTAPT	(+++) (~5× increased binding)	(++++) (~10× increased binding)	Kd (GDF11): 19 nM
D54A: soluble ActRIIB-Fc variant D54A (protein, left off: a dimerising Fc or GST) SGRGEAETRECIYYNANWELERTNQSGLERCEGEQAKRLHCYASWANSSGTIELVKKGCWLDDFNCYDRQECVATEENPQVYFCCCEGNFCNERFTHLPEA	− (~1/2 WT binding)	–	–
WT (64A): soluble ActRIIB-Fc, wild type with alanine at position 64 (WO2006/012627) (protein, left off: a dimerising Fc or GST) SGRGEAETRECIYYNANWELERTNQSGLERCEGEQDKRLHCYASWANSSGTIELVKKGCWLDDFNCYDRQECVATEENPQVYFCCCEGNFCNERFTHLPEA	(+) (WT)	(+) (WT)	–
K74I: soluble ActRIIB-Fc variant K74I (protein, left off: a dimerising Fc or GST) SGRGEAETRECIYYNANWELERTNQSGLERCEGEQDKRLHCYASWANSSGTIELVIKGCWLDDFNCYDRQECVATEENPQVYFCCCEGNFCNERFTHLPEA	–	−− (<1/5 WT binding)	–
K74A: soluble ActRIIB-Fc variant K74A (WO2006/012627 table) (protein, left off: a dimerising Fc or GST) SGRGEAETRECIYYNANWELERTNQSGLERCEGEQDKRLHCYASWANSSGTIELVAKGCWLDDFNCYDRQECVATEENPQVYFCCCEGNFCNERFTHLPEA	+++++ (~40× increased binding)	+++++ (~40× increased binding)	–
K55A: soluble ActRIIB-Fc variant K55A (protein, left off: a dimerising Fc or GST) SGRGEAETRECIYYNANWELERTNQSGLERCEGEQDARLHCYASWANSSGTIELVKKGCWLDDFNCYDRQECVATEENPQVYFCCCEGNFCNERFTHLPEA	++ (<2× increased binding)	–	–
L79A: soluble ActRIIB-Fc variant L79A (protein, left off: a dimerising Fc or GST) SGRGEAETRECIYYNANWELERTNQSGLERCEGEQDKRLHCYASWANSSGTIELVKKGCWADDFNCYDRQECVATEENPQVYFCCCEGNFCNERFTHLPEA	+ (WT)	–	–
R40A: soluble ActRIIB-Fc variant R40A (protein, left off: a dimerising Fc or GST) SGRGEAETRECIYYNANWELEATNQSGLERCEGEQDKRLHCYASWANSSGTIELVKKGCWLDDFNCYDRQECVATEENPQVYFCCCEGNFCNERFTHLPEA	− (~1/2 WT binding)	− (~1/2 WT binding)	–
WT (64R): soluble ActRIIB-Fc, wild type with arginine at position 64 (WO2006/012627) (protein, left off: a dimerising Fc or GST) SGRGEAETRECIYYNANWELERTNQSGLERCEGEQDKRLHCYASWRNSSGTIELVKKGCWLDDFNCYDRQECVATEENPQVYFCCCEGNFCNERFTHLPEA	–	(+++) (~5× increased binding)	–
K74Y: soluble ActRIIB-Fc variant K74Y (protein, left off: a dimerising Fc or GST) SGRGEAETRECIYYNANWELERTNQSGLERCEGEQDKRLHCYASWANSSGTIELVYKGCWLDDFNCYDRQECVATEENPQVYFCCCEGNFCNERFTHLPEA	–	−− (<1/5 WT binding)	–
F82A: soluble ActRIIB-Fc variant F82A (protein, left off: a dimerising Fc or GST) SGRGEAETRECIYYNANWELERTNQSGLERCEGEQDKRLHCYASWANSSGTIELVKKGCWLDDANCYDRQECVATEENPQVYFCCCEGNFCNERFTHLPEA	++ (<2× increased binding)	− (~1/2 WT binding)	–
D80I: soluble ActRIIB-Fc variant D80I (protein, left off: a dimerising Fc or GST) SGRGEAETRECIYYNANWELERTNQSGLERCEGEQDKRLHCYASWANSSGTIELVKKGCWLIDFNCYDRQECVATEENPQVYFCCCEGNFCNERFTHLPEA	–	−− (<1/5 WT binding)	–
K74F: soluble ActRIIB-Fc variant K74F (protein, left off: a dimerising Fc or GST) SGRGEAETRECIYYNANWELERTNQSGLERCEGEQDKRLHCYASWANSSGTIELVFKGCWLDDFNCYDRQECVATEENPQVYFCCCEGNFCNERFTHLPEA	–	−− (<1/5 WT binding)	–
ActRIIB(K74A 20-134)-hFc: ActRIIB(20-134)-hFc variant with K74A mutation (protein) GRGEAETRECIYYNANWELERTNQSGLERCEGEQDKRLHCYASWRNSSGTIELVAKGCWLDDFNCYDRQECVATEENPQVYFCCCEGNFCNERFTHLPEAGGPEVTYEPPPTAPTGGGTHTCPPCPAPELLGGPSVFLFPPKPKDTLMISRTPEVTCVVVDVSHEDPEVKFNWYVDGVEVHNAKTKPREEQYNSTYRVVSVLTVLHQDWLNGKEYKCKVSNKALPVPIEKTISKAKGQPREPQVYTLPPSREEMTKNQVSLTCLVKGFYPSDIAVEWESNGQPENNYKTTPPVLDSDGSFFLYSKLTVDKSRWQQGNVFSCSVMHEALHNHYTQKSLSLSPGK	–	–	Koff, GDF8 (GDF8): 2.03e-05 s⁻¹
